Data as given in PMC8786347 (Oncoimmunology, 2022).

Tests used:
Experiment in all cases: ELISA
[1] = biological target: T1, CD27-huFc (UniProt P26842 20-191)
T1 sequence (looked up): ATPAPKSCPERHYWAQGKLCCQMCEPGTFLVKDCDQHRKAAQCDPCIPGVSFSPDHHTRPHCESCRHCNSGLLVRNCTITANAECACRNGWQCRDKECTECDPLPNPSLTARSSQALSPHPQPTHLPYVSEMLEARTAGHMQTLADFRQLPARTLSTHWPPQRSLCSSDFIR

[2] = biological target: T2, CD27-moFc (UniProt P26842 20-191)
T2 sequence (looked up): T1 sequence (looked up)

[3] = biological target: T3, OX40-moFc (UniProt P43489 29-214)
T3 sequence (looked up): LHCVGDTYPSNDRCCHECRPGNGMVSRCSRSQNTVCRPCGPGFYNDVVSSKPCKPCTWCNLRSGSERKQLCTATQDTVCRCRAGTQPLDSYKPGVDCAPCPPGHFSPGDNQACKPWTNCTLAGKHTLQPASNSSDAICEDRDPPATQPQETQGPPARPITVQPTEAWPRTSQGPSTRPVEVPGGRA

Measured: EC50

B1: scCD27L-scOX40L-Fc (Fc fusion, human)
chain 1: SLGWDVAELQLNHTGPQQDPRLYWQGGPALGRSFLHGPELDKGQLRIHRDGIYMVHIQVTLAICSSTTASRHHPTTLAVGICSPASRSISLLRLSFHQGCTIASQRLTPLARGDTLCTNLTGTLLPSRNTDETFFGVQWVRPGGSLGWDVAELQLNHTGPQQDPRLYWQGGPALGRSFLHGPELDKGQLRIHRDGIYMVHIQVTLAICSSTTASRHHPTTLAVGICSPASRSISLLRLSFHQGCTIASQRLTPLARGDTLCTNLTGTLLPSRNTDETFFGVQWVRPGGSLGWDVAELQLNHTGPQQDPRLYWQGGPALGRSFLHGPELDKGQLRIHRDGIYMVHIQVTLAICSSTTASRHHPTTLAVGICSPASRSISLLRLSFHQGCTIASQRLTPLARGDTLCTNLTGTLLPSRNTDETFFGVQWVRP
chain 2: QVSHRYPRIQSIKVQFTEYKKEKGFILTSQKEDEIMKVQNNSVIINCDGFYLISLKGYFSQEVNISLHYQKDEEPLFQLKKVRSVNSLMVASLTYKDKVYLNVTTDNTSLDDFHVNGGELILIHQNPGEFCVLGGGGSGGGGSGGGGSQVSHRYPRIQSIKVQFTEYKKEKGFILTSQKEDEIMKVQNNSVIINCDGFYLISLKGYFSQEVNISLHYQKDEEPLFQLKKVRSVNSLMVASLTYKDKVYLNVTTDNTSLDDFHVNGGELILIHQNPGEFCVLGGGGSGGGGSGGGGSQVSHRYPRIQSIKVQFTEYKKEKGFILTSQKEDEIMKVQNNSVIINCDGFYLISLKGYFSQEVNISLHYQKDEEPLFQLKKVRSVNSLMVASLTYKDKVYLNVTTDNTSLDDFHVNGGELILIHQNPGEFCVL
0.3 nM: [1] | [2] | [3]
